According to paper PMC12081870 (Communications Biology, 2025):

Test: 15N NMR relaxation (T1, T2, NOE) of Sla1 SH3#1&2
Type: physicochemical, Saccharomyces cerevisiae
Design: Time Constant (T2) / T1 / T2: unit not given here
Settings: for R1/s: 15N relaxation rate; for NOE / T1 / T2: 15N relaxation; for Time Constant (T2): fit A exp(-Bx), 11 peaks
Description: Fig. 2 A structural analysis of Sla1 SH3 domains 1 and 2. A The predicted interface between the first two SH3 domains of Sla1 as modelled using Alphafold. SH3#1 is shown in light green and SH3#2 is shown in cyan. Residues predicted to form hydrogen bonds using the Pymol search function are shown as sticks and labelled with their respective residue numbers. Dashed black lines indicate interactions. The red line in the structure indicates residues 67–70 in the hinge between the SH3 domains; the magenta loop indicates residues 52–54. B Assignment of the ^1H ^15N HSQC spectrum of Sla1 SH3 domains 1 and 2. C^15N relaxation data for Sla1 SH3#1&2. The linker between domains is approximately residues 67–70 (shown with red line under the trace and in A), and the mobile region 52-54 is part of a loop (shown with magenta line below the trace and in A). The correlation time of 8.5 ns (derived from the trimmed ^15N T1/T2 ratio), matches that calculated for a rigid two-domain structure rather than two independent domains (8.8 and 4.5 ns, respectively).
To investigate further, we purified ^15N, ^13C labelled Sla1 SH3#1&2 and analysed using NMR. A full assignment was obtained (Fig. 2B) which confirmed the Alphafold structure. An important aspect when considering the function of tandem domains is the level of rigidity or flexibility between the domains. […] NMR was used to determine relaxation parameters (^15N R1, R2 and NOE) of ^15N-labelled SH3#1-2 (Fig. 2B). […] The structural unity of the two-domain structure explains why attempts to study SH3#2 alone were unsuccessful.
Experiments were carried out on Bruker DRX-600 and DRX-800 spectrometers fitted with cryoprobes. SH3 domains 1 and 2 were assigned using a standard set of HNCA/HN(CO)CA, HNCO/HN(CA)CO and CBCAHN/CBCA(CO)HN 3D spectra. The assignment has been deposited at BioMagResBank, with code 52650. SH3 domain-3 was assigned by comparison to data provided by Prof Ishwar Radhakrishnan (Northwestern University) for the same domain although with different residues at both ends. Titrations were conducted with three peptides (GenScript Biotech, UK) comprising the three PP motifs (Fig. 3A): p1 […] (residues 318–339); p2 […] (residues 330–361); and p3 […] (residues 375–397). Peptide solutions were prepared as concentrated stock solutions in the same buffer at the same pH and added stepwise to protein solutions. Shift changes were analysed by picking peaks in Felix (Felix NMR Inc, San Diego, CA), which were downloaded to text files and for determining Kd were analysed using Levenberg-Marquardt least squares fitting to the standard quadratic equation[63]. Analysis of the ^15N relaxation data was carried using CCPN Analysis[64].

[1] = Average over the listed residues

B1: Sla1 SH3#1-2: SH3#1-2 (aa 5-131), tandem domains; sequence in b253 (protein)
chain: LGIYRAVYAYEPQTPEELAIQEDDLLYLLQKSDIDDWWTVKKRVIGSDSEEPVGLVPSTYIEEAPVLKKVRAIYDYEQVQNADEELTFHENDVFDVFDDKDADWLLVKSTVSNEFGFIPGNYVEPEN
modifications: 15N-labelled (NMR only); left off: GST, end not stated, cleaved
B1 showed an R1/s (Res No 120) of 1.466 s⁻¹, an R1/s (Res No 121) of 1.493 s⁻¹ and an R1/s (Res No 122) of 1.379 s⁻¹. It also gave an R1/s (Res No 124) of 1.37 s⁻¹, an R1/s (Res No 125) of 1.488 s⁻¹ and an R1/s (Res No 126) of 1.238 s⁻¹. For the same molecule, the R1/s (Res No 127) was 1.493 s⁻¹, the R1/s (Res No 128) was 1.443 s⁻¹ and the R1/s (Res No 130) was 1.206 s⁻¹. The R1/s (Res No 131) was 1.364 s⁻¹, the NOE (Res No 120) was 0.82 and the T1 (Res No 120) was 682.123. The T2 (Res No 120) was 81.3349, the NOE (Res No 121) was 0.78 and the T1 (Res No 121) was 669.609. For the same molecule, the T2 (Res No 121) was 97.0012, the NOE (Res No 122) was 0.83 and the T1 (Res No 122) was 725.391. For the same molecule, the T2 (Res No 122) was 86.8543, the NOE (Res No 124) was 0.77 and the T1 (Res No 124) was 730.172. The T2 (Res No 124) was 96.3447, the NOE (Res No 125) was 0.80 and the T1 (Res No 125) was 671.872. It also gave a T2 (Res No 125) of 93.7171, an NOE (Res No 126) of 0.79 and a T1 (Res No 126) of 807.954. The T2 (Res No 126) was 78.1493, the NOE (Res No 127) was 0.85 and the T1 (Res No 127) was 669.869. The T2 (Res No 127) was 96.0414, the NOE (Res No 128) was 0.81 and the T1 (Res No 128) was 693.218. The T2 (Res No 128) was 98.2071, the NOE (Res No 130) was 0.63 and the T1 (Res No 130) was 829.235. For the same molecule, the T2 (Res No 130) was 96.7653, the NOE (Res No 131) was 0.25 and the T1 (Res No 131) was 733.153. For the same molecule, the T2 (Res No 131) was 129.47, the “T1, average” value [1] was 736.968 ms and the “T1/T2, average” value [1] was 7.904. For the same molecule, the “T2, average” value (Average over the listed residues, unit of column T2 Error not given) was 95.1164 ms, the tm (If S2 ~ 0.9, from T1/T2) was ~8.5 ns and the correlation time (derived from trimmed 15N T1/T2 ratio) was 8.5 ns. For the same molecule, the “Time Constant (T2)” value (residue 2, 2LeuH/2LeuN) was 74.2339, the “Time Constant (T2)” value (residue 3, 3GlyH/3GlyN) was 77.6134 and the “Time Constant (T2)” value (residue 4, 4SerH/4SerN) was 87.959. For the same molecule, the “Time Constant (T2)” value (residue 5, 5LeuH/5LeuN) was 78.1323, the “Time Constant (T2)” value (residue 6, 6GlyH/6GlyN) was 92.4802 and the “Time Constant (T2)” value (residue 7, 7IleH/7IleN) was 92.3591. The “Time Constant (T2)” value (residue 8, 8TyrH/8TyrN) was 80.6702, the “Time Constant (T2)” value (residue 9, 9ArgH/9ArgN) was 95.265 and the “Time Constant (T2)” value (residue 10, 10AlaH/10AlaN) was 80.3318. For the same molecule, the “Time Constant (T2)” value (residue 11, 11ValH/11ValN) was 83.3796, the “Time Constant (T2)” value (residue 12, 12TyrH/12TyrN) was 98.6102 and the “Time Constant (T2)” value (residue 13, 13AlaH/13AlaN) was 103.591. For the same molecule, the “Time Constant (T2)” value (residue 14, 14TyrH/14TyrN) was 86.8853, the “Time Constant (T2)” value (residue 15, 15GluH/15GluN) was 80.7454 and the “Time Constant (T2)” value (residue 17, 17GlnH/17GlnN) was 97.1227. For the same molecule, the “Time Constant (T2)” value (residue 18, 18ThrH/18ThrN) was 94.4167, the “Time Constant (T2)” value (residue 20, 20GluH/20GluN) was 89.6372 and the “Time Constant (T2)” value (residue 21, 21GluH/21GluN) was 88.1386. For the same molecule, the “Time Constant (T2)” value (residue 22, 22LeuH/22LeuN) was 101.792, the “Time Constant (T2)” value (residue 23, 23AlaH/23AlaN) was 109.32 and the “Time Constant (T2)” value (residue 24, 24IleH/24IleN) was 84.8173. The “Time Constant (T2)” value (residue 25, 25GlnH/25GlnN) was 91.5466, the “Time Constant (T2)” value (residue 26, 26GluH/26GluN) was 91.8855 and the “Time Constant (T2)” value (residue 27, 27AspH/27AspN) was 90.7749. For the same molecule, the “Time Constant (T2)” value (residue 28, 28AspH/28AspN) was 79.1318, the “Time Constant (T2)” value (residue 29, 29LeuH/29LeuN) was 102.528 and the “Time Constant (T2)” value (residue 30, 30LeuH/30LeuN) was 94.1276. The “Time Constant (T2)” value (residue 31, 31TyrH/31TyrN) was 100.15, the “Time Constant (T2)” value (residue 32, 32LeuH/32LeuN) was 86.762 and the “Time Constant (T2)” value (residue 33, 33LeuH/33LeuN) was 75.7339. For the same molecule, the “Time Constant (T2)” value (residue 34, 34GlnH/34GlnN) was 87.3929, the “Time Constant (T2)” value (residue 35, 35LysH/35LysN) was 101.82 and the “Time Constant (T2)” value (residue 36, 36SerH/36SerN) was 153.776. The “Time Constant (T2)” value (residue 37, 37AspH/37AspN) was 90.5854 and the “Time Constant (T2)” value (residue 38, 38IleH/38IleN) was 99.0603.
